Data taken from the DeepSol protein solubility set.

Assay: soluble on expression in E. coli; label from the status in PepcDB or PDB records
With “MLVENLAHFSADTRFEADLVIIGGGPAGLTVARELRGAPLRVLIVESGLLEEAPQANELSTLESIGEPNAPHQIQKRIAFHGANCRSWTQDLQPYGVRCRALGGSTHAWAGKSAAFDDIDFQERAWVPHSGWPMDRSSLDPFLDRAADILNLGPNRYDDTLWTLLGISPPEPQLGTQGLRSFFWQFSRSRVDPLDIMRFGADFLRLEADNIRVLLNATATRLDLTQEGDGFRGLEIATNDGQRHTVHAKAAVIAGGGIENARLLLASTTIHANGVGNQYDLVGRFLMDHAGARIARFGGSNANQIMRRFGFYGLRNSGRTSMYMHGLAITPEMQEREHLLNSAIYFMPEHAADDPWDAVKRLLTGKSKRQVKDAMRAIAGAGLLGKGAAMKLLSSDRLPVAVKDFIVQTAIRYMPNVAADDFLSRGVPHKVTDVWIDAISEQQPDPDSRITLSEKTDRLGLPLARVNWKINADERRTIMRLGHIVESAFAQARLPKPILEPWVAEGAFNDAVIIDMAHSMGTTRMSASARSGVVDEQCQVHGVRDLYIAGSSIFPTSGHANPTLMIVAFAVRLADRIRQTLL” the “soluble on expression in E. coli” value was “not soluble”.
In the case of “MGSDKIHHHHHHLNAAAQTTPEIRRPQLGWTMLETPRFLSETALLALAWPMLAKAPQGDGHPVMVLPGFATNDTMTVLLRSFLARLGYQVFPWDLGWNLDQHSAGENGEHLAARIDAIAAETGRKVSLVGWSLGGVIAREAARRDHGGLRQVVTLGSPFTGNPRATSLTSLYELLTGNKASSEKSAARYARGHHPLPVPSTAIFSRTDGITAWENCVSETDDRTENIEVHCSHFGFVANPGVFWAVADRLAQPEGQWRKFDPKGCFAAFYP”, the “soluble on expression in E. coli” value is reported as “not soluble”.
For “MGSDKIHHHHHHMGGIYRLSLKSTEATAERLSCDTRCNYEDRDLAYSPDGRWLAIARRFSNISEDIFIRDLASAHEKRLTQGLEDIRGLSWTPDSQALVFATEDSGSSNGFTLDINTAQIRSLDVEGMSYPSSVSAEGELVYHQYHRQFQMAYFSLGDKVPGSLFPLLYSGVSHRNPDYSPEAKRIVFVSSETGYNEIWTSDINGQKLEQLTQLKSRVAYPRWSPDGSRIAFIAPDDRNEGNRIFILDLTNKNITALASSYHNHGRPSWNWQGTAVLASTADGITEFYLDNRAPRVISSLSMAVGFAKSATELVFSRDGENGLWQINLTQPEHVEQLISTDAFRAGNNWVLTASGVYFKSSNGHEQLLNYWEASSQQVTSLLRVPRSSLSGFGSMTYIPEANRLVMTLDGFPQRDIILLKHKLLK”, the “soluble on expression in E. coli” value was “not soluble”.
With “MEVRFKIYRYNPEVDKKPYYDEYTVEVENEGVKVLTALELIKEQDPTLALRRSCREGVCGSDGMNINGKNRLACITSVGELKQPIKVNPLPGLPVIRDLIVDMKQFYKNYEKVKPYLINDDEPPVKERLQSPEDRAKLDGLYECILCACCTTSCPSFWWNPDKFIGPSGLLQAYRFIADSRDTATEQRLEDLKDPFSLFRCRTIMNCVSVCPKGLNPTEAIGKIRSALLKKNV” the “soluble on expression in E. coli” value was “not soluble”.
For “MYQYDEYDQALVSERVAQFRDQIARRLDGELSEEEFLPLRLQNGLYLQKHAYMLRVAIPYGTLSAPQLRALAHVARHYDRGYGHFTTRQNIQFNWIELEQVGDILEHLAGAQMHAIQTSGNCVRNITTEAFAGVAADEWTDPRPLAEILRQWSTVNPEFLFLPRKFKIALSSAVEDRAAVQMHDIGLYLYRHPDAGELRLRVLVGGGLGRTPMLGQVIRDDLPWQHLLSYVEAILRVYNRYGRRDNKYKARIKILVKALGIEAFAREVEEEWQHLRDGPAQLTAEECQRVAERFVLPRYLPPADGELAYGSARAADPAFARWASRNVQAHKVPGYASVVLSTKPGASAPPGDVTAEQMERVADWAERYGFGEIRVAHEQNLVLPDVRLENLHALWREACAAGLGTPNQGLLSDIIACPGGDYCALANAKSIPIAQGIQQRFEDLDHLHDIGELSLNISGCMNACGHHHIGNIGILGVDKSGSEWYQVTLGGAQGKDSALGKVIGPSFSAAEVPAVIERIVETFTDLRVGPERFIDTFNRVGLEPFKARVYARMEEPA”, the “soluble on expression in E. coli” value was “not soluble”.
In the case of “MADKREPAPGWPILKGEYEVGDVKNSVLVITCGSHLPGKPILDAGAACTGSCKTENLGIEKVVAHIISNPNIRYLLVTGSEVKGHITGQSMMSLHANGVKENRIAGALGAIPYVENLNAAAVARFQEQVQVVNLLDTEDMGAITSKVRELASKDPGAFDADPLVVEISEEGEEEEEGGVVRPVSGEIAVLRSRLKAIEARMMDI”, the “soluble on expression in E. coli” value is reported as “not soluble”.
With “MARLEVPRPATFVTLTGFMGVGKSRIGRELARALMLHFIDLDRYIERRTGISIPDIFRHLGEEAFRRMEKEAVRELVGKDYLVLSLGGGTFMDPESQKALLGRGPVVALWASPETILERAMRKPGERPLLQVENPLERIRTLLEARAPVYRKAHIHVSTDGRRVEEVVEEIVEKLWRHAEARGA” the “soluble on expression in E. coli” value was “soluble”.
In the case of “MCTALSPKVRSGPGLSDMHQYSQWLASRHEANLLPMKEDLALWLTNLLGKEITAETFMEKLDNGALLCQLAETMQEKFKESMDANKPTKNLPLKKIPCKTSAPSGSFFARDNTANFLSWCRDLGVDETCLFESEGLVLHKQPREVCLCLLELGRIAARYGVEPPGLIKLEKEIEQEETLSAPSPSPSPSSKSSGKKSTGNLLDDAVKRISEDPPCKCPNKFCVERLSQGRYRVGEKILFIRMLHNKHVMVRVGGGWETFAGYLLKHDPCRMLQISRVDGKTSPIQSKSPTLKDMNPDNYLVVSASYKAKKEIKLEHHHHHH”, the “soluble on expression in E. coli” value is reported as “not soluble”.
For “MSLEAIHRSTRIEFSKSSLAYNVQYTKQVSGAKTLWLAVKSNAYGHGLLQVSKIARECGVDGLAVSVLDEGIAIRQAGIDDFILILGPIDVKYAPIASKYHFLTTVSSLDWLKSADKILGKEKLSVNLAVDTGMNRIGVRSKKDLKDEIEFLQEHSDHFSYDGIFTHFASSDNPDDHYFQRQKNRWYELIDGLIMPRYVHVMNSGAAMYHSKELPGCNSIARVGTVVYGVEPSEGVLGPIDKLKPVFELKSALTFVKKIPAGEGISYGSKFVTSRDTWIGTLPIGYGDGWLAEYQDFQLLIDGQKCRQVGQIAMDQMMVALPHEYPIGTEVTLIGKSGKYENTLYDLHKHSGVPPWKITVAFSDRLKRMVVDEGHHHHHH”, the “soluble on expression in E. coli” value was “soluble”.
With “MGSDKIHHHHHHACSISYKFNGSSIDYTKVKTISFENFPNRSAGFVWGPMENMFNTALQDIYMQQTRLKQVKRSGDLQLSGEITNYEAFNKGIGSDGYSSMVELRMTVRVNFVNSSNPTENMNGQQFSASREYNSNQQLSAVQDELVNQMIKEIVEQIFNATVANW” the “soluble on expression in E. coli” value was “not soluble”.
In the case of “MDDIRCAIIIDPDLPPGVIANTAAVLAMSLGKRHPELVGQDLPDARGQPRQGITTVPIPVLKGGADQLRALRAAASETGLTLVELTSATRFTRSYQEYAAALAATPEEMVEYQGLALCGPGKRVRQLTGSLGLLRLEHHHHHH”, the “soluble on expression in E. coli” value is reported as “not soluble”.
For “MSLSLVSQYIDLTEHFQNLIAVILKNPEKVWQMQLNYLEDALSLAQAQFNYWLEGKPLPINDQRFNGEDWINNPFFNLLSQHYLLANEHMNSLLENMEYGDENLAKRVRFFTRQYLDALSPANFIHTNPQLMAETLQSHGKNLLRGLHNLLSDVEAGSSRLIIKMTDTEAFKIGENLATTPGKVIFRNSMMELIQYCPRTTKAKSIPLLIVPPWINKYYILDLSPHNSLIRWLVEQGITVFIISWVNPDETYANKSFYDYLNEGPREAISVIQKQLRVKQVNTLGFCIGGTLLASLLAYNKATKDLSIRSATFLAAMIDFSDPGDIAVFIDEQQINKLEEEMKSKGYLAGKFMASSFNSLRANDLIWSFFIKNYLRGKSPVPFDILYWNADSTNMPATMHSQYLRWMYLHNNLIKPGKIRLNHIPVDVTNIDIPTFFLSTQKDHIAPWKTTYKGFELMKGPKRFVLGGSGHIAGIINPPTQQKYGYRTNNSMDLSAEQWFEKSKEHSGSWWPEWLNWLKLHSGRLINAPDINHLPFAPIMDAPGSYVLKKEGHHHHHH”, the “soluble on expression in E. coli” value was “soluble”.
With “MRPRYRASGPSSSPDRTSSQPGSRSMIQCKRVYEPASPADGRRVLVDRLWPRGIRKEALAMDDWLKEVAPSNEVRKQFCHDPALFDSFREHYRAELQAHPEHWWGLLDSAREGTLTLLYGAHDQQHNNAVVLAEFLEEELDRQQPGSSPTCYADRLS” the “soluble on expression in E. coli” value was “not soluble”.
In the case of “MQDEFYMARALKLAQRGRFTTHPNPNVGCVIVNNGDIVGEGYHHRAGEPHAEVHALRMAGAKAKGATAYVTLEPCSHHGRTPPCCDALIAAGVARVVAAMQDPNPQVAGRGLYRLQQAGIAVSHGLMMSEAEALNKGFLKRMRTGFPYLQLKLGASVDGRTAMASGESQWITSPQARRDVQRLRAQSHAILTSSATVLADDPALTVRWAELDASTQASYPQENLRQPVRIVIDSQNRVTPAHRIVQQPGETWIARTQEDSRAWPDAVRTISVPAHNGHLDLVVLMMQLGRQQINSIWVEAGPGLAGALLQAGLVDELIVYVAPKLLGTQARGLCELPGLEKLADAPQFTFSEIRHVGPDVCLHMVSA”, the “soluble on expression in E. coli” value is reported as “soluble”.
With “MSVSGLKAELKFLASIFDKNHERFRIVSWKLDELHCQFLVPQQGSPHSLPPPLTLHCNITESYPSSSPIWFVDSEDPNLTSVLERLEDTKNNNLLRQQLKWLICELCSLYNLPKHLDVEMLDQPLPTGQNGTTEEVTSEEEEEEEEMAEDIEDLDHYEMKEEEPISGKKSEDEGIEKENLAILEKIRKTQRQDHLNGAVSGSVQASDRLMKELRDIYRSQSYKTGIYSVELINDSLYDWHVKLQKVDPDSPLHSDLQILKEKEGIEYILLNFSFKDNFPFDPPFVRVVLPVLSGGYVLGGGALCMELLTKQGWSSAYSIESVIMQINATLVKGKARVQFGANKNQYNLARAQQSYNSIVQIHEKNGWYTPPKEDG” the “soluble on expression in E. coli” value was “soluble”.
For “MGKQCFVTGRKASTGNNRSHALNSSKRRWNANLQKVRILVDGKPKKVWVSARALKSGKVTRVLEHHHHHH”, the “soluble on expression in E. coli” value was “not soluble”.
For “MGSDKIHHHHHHMTQKESIRLFEERKVRAIWDDEQEEWYFSIVDVISILTDSPNPRKYWSVLKTRLKREGSELTTNCSQLKMQAADGKKYLTDVANTEQLFRLIQSVPSPKAEPFKLWIAQVAKERLDQMQDPELSIEQAMADYKRLGYSDNWINQRLKSIEIRKDLTDEWKKRGLEEGLHFATLTDIIYKSWSDMTSKEYKRFKGLRKENLRDNMTNKELVLNMLAELSTKEISEASEPDTFSEHINVAQQGGEVARNARLELEAKTGKSVISPLNAQKIISLKKGENERDV”, the “soluble on expression in E. coli” value was “not soluble”.
With “MSLGFAGDGKTYTASELAIGLVMLMRQRGIEAGNRPVMFLDTETGSDWVKPRFDAENIELFTAKTRSFVDLLEAINEAESSGSVMIIDSISHFWTGLCDEYARRRNRKRGLEFSDWAWLKQEWRRFTDRFVNSQAHIIMCGRAGYEYDFFEGDDGKRQLAKTGIKMKAETETGYEPSIRIQMEKQMNIETGQVWRTARILKDRSTRIDGQVFSNPTFKNFLPHIESLNLGGEHPGIDTSRDNSELFANDGTPTWLKEKRAKEIALDEIIELLNKHHGGTSNDAKRAKADLLEKTFTSRSWERIKGMDWPTIKAGRNALWIELEGVEYAFPDEGHHHHHH” the “soluble on expression in E. coli” value was “soluble”.
With “NETEVAKTSQDTTTASSSSEQNQSSNKTQTSAEVQTNAAAYWDGDYYVKDDGSKAQSEWIFDNYYKAWFYINSDGRYSQNEWHGNYYLKSGGYMAQNEWIYDSNYKSWFYLKSDGAYAHQEWQLIGNKWYYFKKWGYMAKSQWQGSYFLNGQGAMIQNEWLYDPAYSAYFYLKSDGTYANQEWQKVGGKWYYFKKWGYMARNEWQGNYYLTGSGAMATDEVIMDGARYIFAASGELKEKKDLNVGWVHRDGKRYFFNNREEQVGTEHAKKIIDISEHNGRINDWKKVIDENEVDGVIVRLGYSGKEDKELAHNIKELNRLGIPYGVYLYTYAENETDAENDAKQTIELIKKYNMNLSYPIYYDVQNWEYVNKSKRAPSDTDTWVKIINKYMDTMKQAGYQNVYVYSYRSLLQTRLKHPDILKHVNWVAAYTNALEWENPYYSGEKGWQYTSSEYMKGIQGRVDVSVWY” the “soluble on expression in E. coli” value was “soluble”.
